Experimental data: PMC7644011

Tested on: rituximab (MabThera, anti-CD20 chimeric mouse/human IgG1) (chimeric mouse/human)
Experiment: ELASA
Conditions: 80°C 1 min; ELASA on protein A plates, antibody 4 ug/ml; aptamers folded in 20 mM Tris pH 7.6, 100 mM NaCl, 2 mM MgCl2, 5 mM KCl, 1 mM CaCl2, 0.02% Tween 20, then diluted …

Sequence	Kd [nM]
ACTTCGGCTAGTTAGGGGGTAGTTTAGATCGTCTCTACAT [C10]	17.6
GGCCATTGTGGACTTCTTTGGGTAATTCAGGGGCTCGATT [C7]	8.8
